Test results published in PMC5832153.

Target: FliC-aGFP_ENH_V2 (Salmonella) (UniProt P06179)
Experiment: ITC; sfGFP (0.065 mM) injected in 10 μl portions into FliC-aGFP_ENH in the cell; 25 °C; 20 mM Tris-HCl, 150 mM NaCl, pH 8.5; one-binding-site model

Sequence of UniProt P06179 (P06179 whole entry): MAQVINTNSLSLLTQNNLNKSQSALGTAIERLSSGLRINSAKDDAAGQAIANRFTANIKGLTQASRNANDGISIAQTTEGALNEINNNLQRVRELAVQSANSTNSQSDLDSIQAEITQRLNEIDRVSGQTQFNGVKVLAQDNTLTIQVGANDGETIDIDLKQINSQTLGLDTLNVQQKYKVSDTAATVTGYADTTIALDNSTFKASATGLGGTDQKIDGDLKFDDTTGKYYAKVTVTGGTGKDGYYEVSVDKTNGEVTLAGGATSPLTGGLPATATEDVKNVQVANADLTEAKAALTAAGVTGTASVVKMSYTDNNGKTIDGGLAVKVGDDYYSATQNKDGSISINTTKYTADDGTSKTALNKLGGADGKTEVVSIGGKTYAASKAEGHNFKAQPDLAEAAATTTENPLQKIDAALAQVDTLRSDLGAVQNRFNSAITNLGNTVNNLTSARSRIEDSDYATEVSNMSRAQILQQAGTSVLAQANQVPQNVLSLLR

Substance “C-terminally His-tagged superfolder GFP (from UniProt P42212 1-238) (natural protein)” has a Kd of 1.1 nM, a dH of -9.3 kcal/mol and a stoichiometry N of 0.86.
